Experimental findings from the nanobody polyreactivity screen of Harvey et al. (2022) are described below.

The data set can be described thus: yeast display, Sf9 membrane polyspecificity reagent, FACS + sequencing; frameworks hold sequencing errors. The essentials:
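Using colony PCR, genes from sorted yeast display clones were amplified, then sequenced on MiSeq at 2 × 250 and filtered by CDR length. The clones had been stained with 10% biotinylated, detergent-solubilized Sf9 membrane reagent for 1 hour at 4 °C and sorted by FACS into low and high (top ~1%) gates on anti-HA and streptavidin fluorescence. Polyreactivity labels come from the gate of origin.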
On to “QVQLVESGGGLVQAGGSLRLSCAASGSTFDGNAMGWYRQAPGKERELVATINSDDSKNYADSVKGRFTISRDNAKNTVYLQMNSLKPEDTAVYYCAARLYVTPILSYVERYTNDYWGQGTQVTVSS”, for which the “polyreactivity (PSR sort gate)” value is given as “low polyreactivity”.

As for “QVQLVESGGGLVQAGGSLRLSCAASGRTYNTNAMGWYRQAPGKERELVAAISGGGSTYADSVKGRFTISRDNAKNTVYLQMNSLKPEDTAVYYCAAQNVWFYGFWRDYWGQGTQVTVSS”, the “polyreactivity (PSR sort gate)” value is given as “low polyreactivity”.

With “QVQLVESGGGLVQAGGSLRLSCAASGIIFYWYAMGWYRQAPGKERELVAGIDSDGSTNYADSVKGRFTISRDNAKNTVYLQMNSLKPEDTAVYYCAAVQGYRFYESYYWGQGTQVTVSS”, the “polyreactivity (PSR sort gate)” value is on record as “low polyreactivity”.

Consider “QVQLVESGGGLVQAGGSLRLSCAASGSIFSSNTMGWYRQAPGKERELVAAITSGGTTYADSVKGRFTISRDNAKNTVYLQMNSLKPEDTAVYYCAARYYIHRGYDYDYWGQGTQVTVSS”, for which the “polyreactivity (PSR sort gate)” value is “high polyreactivity”.

With “QVQLVESGGGLDQAGGSLRLSCAASGRTFRNYVMGWYRQAPGKERELVAAISRSGGSTYYADSVKGRFTISRDNAKNSVYLQMNSLKPEDTAVYYCNTVTTYDVEYWGQGTQVTVSS”, the “polyreactivity (PSR sort gate)” value is “high polyreactivity”.

“QVHLVESGGGLVQAGVSLRLSCAASGSIFEGNGMGWYRQAPGKERELVAAITFRSGSTYYADSVKGRFTNSRDNAKNTVYLQMNSLKPEDTAVYYCAADEYYQVSAYDYWGQGTKVTVSS”: the “polyreactivity (PSR sort gate)” value is given as “low polyreactivity”.

Consider “QVQLVESGGGLVQAGGSLRLSSAHSGFIFAHNARGRYRQAPGKERELVAAITSSGGSTYYADSVKGRFRISRDNAKNTVYLQMNSVKPEDTAVYYCNDYTYARRGYDEWGQGTQVTVSS”, for which the “polyreactivity (PSR sort gate)” value is “high polyreactivity”.

Take “QVQLVESGGGLVQAGGSLRLSCAASGRIFQSYAMGWYRQAPGKERELVAGIRAGGGRTYYADSVKGRFTISRDNAKNTVYLQMNSLKPEDTAVYYCAAGGRPYKLDFTRSDYWGEGTQVTVSS”: the “polyreactivity (PSR sort gate)” value is “low polyreactivity”.

On to “QVQHVDSGGGLVQAGGSLSLSCAASGSIFWPNTMGWYRQARGKERELVATISSGADTSYADSVKGRFTISRDNAKNTVYLQMNSLKPADTAVYYCAIRITVDDDHPRAQTFNYCGQGTQVTVSS”, for which the “polyreactivity (PSR sort gate)” value is listed as “low polyreactivity”.

On to “QVQLVESGGGLVQAGGSIRLSCAASGRTFDSNAIGWYRQAAGKEWQLVAAISCSGDTTYDADTVKGRFTISRDNAKNTVYLQINILKPEDTAVYYCAADHDSYDSGYDYWGQGTQGTVSS”, for which the “polyreactivity (PSR sort gate)” value is “low polyreactivity”.

As to “QVQLVESGGGLVQAGGSLRLSCAASGRIFRENAMGWYRQAPGKERELVASNSLSGTSTYYADSVKGRFTISRDNAKNTVYLQMNSLKPEDTAVYYCNGERLSTDPYDRNYWGQGTQVTVSS”, the “polyreactivity (PSR sort gate)” value is recorded as “low polyreactivity”.

Regarding “QVQLVESGGGLVQAGGSLRLSCDASGNTSSYYTMGWYRQAPGKERELGARISNRGTNTYYAESVKGRVTISRDNAKNTVYLQMNSLKPEDTAVYYCAALYWFYVYPFTEYDYWGQGTQVTVSS”, the “polyreactivity (PSR sort gate)” value was “low polyreactivity”.

Take “QVQLVESGGGLVQAGGSLSLSCAATGRLFSWYTMGWYRQAPGKERELVAAISWSGTSTYYADSVKGRFTISRDNAKNTVYLQMNSLKPEDTAVYYCNKVNPANIRRSYDYWGQGTQVTVSS”: the “polyreactivity (PSR sort gate)” value is on record as “high polyreactivity”.

As for “QVQLVESGGGLVQAGGSLRLSCAASGRIFSYNAMGFYRQAPGKERELVAGITYGSTYYADSVKGRFTISRDNAKNTVYLQMNSLKPEDTAVYYCAADLSYTSVHGYRSDTLMDYWGQGTQVTVSS”, the “polyreactivity (PSR sort gate)” value was “low polyreactivity”.

For “QVQLVESGGGLVQAGGSLRLSCAASGSIFGRNDMGWYRQAPRKERELLARITRGGSTNYADSVKGRVTISRDNAKYTVYLQMNSLKPEDTAVYYCAAGARQYRGVPDRYGYWGQGTQVTVSS”, the “polyreactivity (PSR sort gate)” value is listed as “low polyreactivity”.

Take “QVQLVESGGGLVQAGGSLRLSCAASGSIFITYAMGWYIQAPGKERELVTAIRDSGDRTYYADSVKGRFTISRDNAKNTVYLQMNSLKPEDTSVYYCAAVLYSRLYWDRLDYWGQGTQVTVSS”: the “polyreactivity (PSR sort gate)” value is “low polyreactivity”.

“QVQLVESVGGLVQAGGSLRLSCAASGSTFAFYDMGWYRQAPGKERELVAAISQSDGDTYYADSVKGRFTISRDNAKNTVYLQMNSLKPEDTAVYYCAAETAHTPEYERGSDYWGQGTQVTVSS”: the “polyreactivity (PSR sort gate)” value was “low polyreactivity”.

As for “QVHLVESGGGLVQAGGSLRLSCASSGRIFEAYAMGWYRQAPGKERELVAAISGSGGSTYYADSVKGRFTISRDNAKNTVYLQMNSLKPEDTAVYYCAARYFVGKGLGYWGQGTQVTVSS”, the “polyreactivity (PSR sort gate)” value is listed as “high polyreactivity”.

For the sequence “QVQLVESGGGLVQAGGSLRLSCAASGPTFYLYDTMGWYRQAPGKERELVAAISWDDGDTYYADSVKGRFTISRDNAKTTVYLQMNSLKPEDTAVYYCAAEYLSGAHGYWGQGTHVTVSS”, the “polyreactivity (PSR sort gate)” value is listed as “low polyreactivity”.

As to “KVQLVESGGGLVQAGGSLRLSCAASGSIISGNAMGWYRQAPGKERELVAAISRSGGRTYYADSVKGRFTISRDNAKNTVYLQMNSLKPEDTAVYFCAAGRSLRGDYWGQGTQVTVSS”, the “polyreactivity (PSR sort gate)” value was “high polyreactivity”.

As for “QVQLVESGGGLVQAGGSLRLSCAASGSTFRRNAMGWYRQAPGKERELVAAISRSGGSTYYADSVKGRFTISRDNAKNTVYLQMNSLKPEDTAVYYCAADAARTSHWSGDYWGQGTQVTVSS”, the “polyreactivity (PSR sort gate)” value is “high polyreactivity”.

For “QLQHVESGGGLVQAGGSLRLSCAGTGRIMWRNAMGWYRQAPGKEMELVAAITSGSRTSYADSVKGRFTISRDNSKNTVYLQMNSLKPEDTAVYYCARRSYGIYYRSADESWGQGTQVTVSS”, the “polyreactivity (PSR sort gate)” value is “high polyreactivity”.

For the sequence “QVQLVESGGGLVQAGGSLRLSCAASGSTFWAYVMGWYRQAPGKESELVAAISKSGVRTHYADSVKGRFTISRDNAKNTVYLQMNSLKPEDTAVYYCAAEWSWGPYRFDYWGQGTQVTVSS”, the “polyreactivity (PSR sort gate)” value is reported as “high polyreactivity”.

Take “QVQLVESGGGLVQAGGSLRLSCAASGRIFAHYAMGWYRPAPGKERELVAAISSGGSTYYADSVKGRFTISRDNAKNTVYLQMKSLKPEDTAVYYCNKRPVRRKYDYWGQGTQVTVSS”: the “polyreactivity (PSR sort gate)” value is reported as “low polyreactivity”.

With “QVQLVESGGGLVQAGGSLRLSCAASGSTFGGYVMGWYRQAPGKERELVAAISGNGASTTYADSVKGRFTISRDNAKNTVYLQMNSLKPEDTAVYYCDALYRKAHSDYDYWGQGTQVTVSS”, the “polyreactivity (PSR sort gate)” value is reported as “low polyreactivity”.

With “QVQLVESGGGLVQAGGSLRLSCAASGSTFSANAMGWYRQAPGKERELVAAITYRGGNTYYADSVKGRFTISRDNAKNTVYLQLNSLKPEDTAVYYCNRDLRVRYRRLKYGYWGQGTQVTVSS”, the “polyreactivity (PSR sort gate)” value is “low polyreactivity”.

As for “QVQLVESGGGLVQAGGSLRLSCAASGRILIPYAMGWYRQAPGKEREFVAGITGSGGRTYYADSVKGRFTISRDNAKNTVYLQMNSLKPEDTAVYYCAADYYYSPTMYYWGQGTQVTVSS”, the “polyreactivity (PSR sort gate)” value is listed as “low polyreactivity”.

With “QVQLVESGGGLVQAGGSLRLSCAASGRIFTSNAMGWYRQAPGKERELVAAISGSGGRTYYADSVKGRFTISRDNAKNTVYLQMNSLKPEDTAVYYCAVGTRVKYDYWGQGTQVTVSS”, the “polyreactivity (PSR sort gate)” value is given as “high polyreactivity”.

“QVQLVESGGGLVQAGGSLRLSCAASGRIFVDNTMGWYRQAPGKERELVAVITSGGSTNYADSVKGRFTISRDNAKNTVYLQMNSLKPEDTAVYYCATEPGGYRFDDRPFQYGYWGQGTQVTVSS”: the “polyreactivity (PSR sort gate)” value is “low polyreactivity”.

For “QVQLVESGGGLVQAGGSLRLSCAASGSIFWGNAMGWYRQAPGKERELVADISGGDTYYADSVKGRFTISRDNAKNTVYLQMNSLKPEDTAVYYCAADVWQYFYPYGYYYWGLGTQVTVSS”, the “polyreactivity (PSR sort gate)” value is reported as “high polyreactivity”.

Take “QVQLVESGGGLVQAGGSLRLSCAASGSIFVDYAMGWYRQAPGKERELVAAISWRGGSTYYADSVKGRFTISRDNAKNTVYLQMNSLKPEDTAVYYCAALTPFKYDYWGQGTKVTVSS”: the “polyreactivity (PSR sort gate)” value was “low polyreactivity”.

Turning to “QVQLVESGGGLVQAGGSLRLSCAASVFTFPPYAMGWYRQAPGKERELVAAISSAGSTKYADSVKGRFTISRDNAKNTVYLQMNSLKPEDTAVYYCAARWARSYDYWGQGTQVTVSS”, the “polyreactivity (PSR sort gate)” value is reported as “low polyreactivity”.

On to “QVKLVESGGGLVQAGGSLRLSCAASGRTFYLYAMGWYRQAPGKERELVARITSGGTTNYADSVKGRFTISRDNAKNTVYLQMNSLKPEDTAVYYCAADPEGLGRVASRYFHFDYWGQGTQVTVSS”, for which the “polyreactivity (PSR sort gate)” value was “low polyreactivity”.

Consider “QVQVVESGGGLVQAGGSLRLSCAASGRTFRKNAMGWYRQAPGKERELVAAISSGGGSTYYADSVKGRFTISRDNAKNSDYLQINSLKPEDTAVYYCAVLVWYYDGYYSSYDYWGQGTQVTVSS”, for which the “polyreactivity (PSR sort gate)” value was “high polyreactivity”.

For the sequence “QVQLVESGGGLVQAGGSLRLSCAASGSTFFYYAMGWYRQAPGKERELVAAISGNGGSTYYADSVKGRFTISRDNAKNTVYLQMNSLKPEDPAVYYCAAVSSWDEYYYWGQGTQVTVSS”, the “polyreactivity (PSR sort gate)” value is reported as “high polyreactivity”.

For “QVQLVESGGGLVQAGGSLRLSCAASGSTFDVNALGWYSQAPGKDRELVAAISWNSGSTYYADSVKGRFTISRDNAKNTVYLQMNSLKPEDTAVYYCAATYGTGRRSKYGYWGQGTQVTVSS”, the “polyreactivity (PSR sort gate)” value is given as “high polyreactivity”.

For the sequence “QVQLVESGGGLVQAGGSLRLSCAASGITFYIKAMGWYRQAPGKERELVAVIDSRGSSTFYADSVKGRFTISRDNAKNTVYLQMNSLKPEDTAVYYCAVEGYPGRYRDPGDLYYYWGQGTQVTLSS”, the “polyreactivity (PSR sort gate)” value is “low polyreactivity”.

On to “QVQLVESGGGLVQAGGSLRLSCAASGYTFYDYAMGWYRQAPGKERELVARINGGGGTNYADSVKGRFTISRDNAKNTVYLQMNSLKPEDTAVYYCAADVYFRQGDVDLLRYDYWGQGTQVTVSS”, for which the “polyreactivity (PSR sort gate)” value is recorded as “low polyreactivity”.

Regarding “QVQLVESGVGLVQAGGSLRLSCAASGSIFLHNAMGWYRQAPGKERELVAGITGSGGSTYYADSVKGRFTISRDNAKNTVYLQMNSLKPEDTAVYYCAAERYGYERYYWGQGTQVTVSS”, the “polyreactivity (PSR sort gate)” value is on record as “high polyreactivity”.

Regarding “QVQLVESGGALVQARGSLRLSCSASGSTFFHNFKGWYRQEPGKERELVAAISGSGTRSYYADSVKGRFTISRDNAKNTVYLQMNSLKPEDTAVYYCNVVPLRVPSYLPKYYYWGQGTQVTVSS”, the “polyreactivity (PSR sort gate)” value was “high polyreactivity”.

Turning to “QVQLVESGGGLVQAGGSLRLSCAASGRTFSSNTMGWYRQAPGKERELVAAISSTDSTYYADSVKGRFTISRDNAKNTVYLQMNSLKPEDTAVYYCNKVVGFRSYFGGYGYWGQGTQVTVSS”, the “polyreactivity (PSR sort gate)” value is “high polyreactivity”.
